# Molecular target: T1, soluble human FcRn (human, UniProt P55899 24-297; P61769 21-119)
# T1 construct: Heterodimer of alpha chain and beta2-microglobulin; also called hFcRn
# Experiment: SPR (Biacore), pH 7.0
row,Kd,Binder
1,350 nM,Fv-4-F1083 (antibody) heavy: QVQLQESGPGLVKPSETLSLTCAVSGHSISHDHAWSWVRQPPGEGLEWIGFISYSGITNYNPSLQGRVTISRDNSKNTLYLQMNSLRAEDTAVYYCARSLARTTAMDYWGEGTLVTVSSASTKGPSVFPLAPSSKSTSGGTAALGCLVKDYFPEPVTVSWNSGALTSGVHTFPAVLQSSGLYSLSSVVTVPSSSLGTQTYICNVNHKPSNTKVDKKVEPKSCDKTHTCPPCPAPELLGGPSVFLFPPKPKDTLYISRTPEVTCVVVDVSHEDPEVKFNWYVDGVEVHNAKTKPREEQYNSTYRVVSVLTVLHQDWLNGKEYKCKVSNKALPAPIEKTISKAKGQPREPQVYTLPPSRDELTKNQVSLTCLVKGFYPSDIAVEWESNGQPENNYKTTPPVLDSDGSFFLYSKLTVDKSRWQQGNVFSCSVMHEALHYHYTQKNLSLSP light: DIQMTQSPSSLSASVGDSVTITCQASTDISSHLNWYQQKPGKAPELLIYYGSHLLSGVPSRFSGSGSGTDFTFTISSLEAEDAATYYCGQGNRLPYTFGQGTKVEIERTVAAPSVFIFPPSDEQLKSGTASVVCLLNNFYPREAKVQWKVDNALQSGNSQESVTEQDSKDSTYSLSSTLTLSKADYEKHKVYACEVTHQGLSSPVTKSFNRGEC
2,270 nM,"Fv-4-F1096 (antibody, human IgG1, kappa) heavy: QVQLQESGPGLVKPSETLSLTCAVSGHSISHDHAWSWVRQPPGEGLEWIGFISYSGITNYNPSLQGRVTISRDNSKNTLYLQMNSLRAEDTAVYYCARSLARTTAMDYWGEGTLVTVSSASTKGPSVFPLAPSSKSTSGGTAALGCLVKDYFPEPVTVSWNSGALTSGVHTFPAVLQSSGLYSLSSVVTVPSSSLGTQTYICNVNHKPSNTKVDKKVEPKSCDKTHTCPPCPAPELLGGPSVFLFPPKPKDTLYISRTPEVTCVVVDVSHEDPEVKFNWYVDGVEVHNAKTKPREEQYNSTYRVVSVLTVLHQDWLNGKEYKCKVSNKALPAPIEKTISKAKGQPREPQVYTLPPSRDELTKNQVSLTCLVKGFYPSDIAVEWESNGTPENNYKTTPPVLDSDGSFFLYSKLTVDKSRWQQGNVFSCSVMHEALHYHYTQKSLSLSP light: DIQMTQSPSSLSASVGDSVTITCQASTDISSHLNWYQQKPGKAPELLIYYGSHLLSGVPSRFSGSGSGTDFTFTISSLEAEDAATYYCGQGNRLPYTFGQGTKVEIERTVAAPSVFIFPPSDEQLKSGTASVVCLLNNFYPREAKVQWKVDNALQSGNSQESVTEQDSKDSTYSLSSTLTLSKADYEKHKVYACEVTHQGLSSPVTKSFNRGEC"
3,290 nM,"Fv-4-F1095 (antibody, human IgG1, kappa) heavy: QVQLQESGPGLVKPSETLSLTCAVSGHSISHDHAWSWVRQPPGEGLEWIGFISYSGITNYNPSLQGRVTISRDNSKNTLYLQMNSLRAEDTAVYYCARSLARTTAMDYWGEGTLVTVSSASTKGPSVFPLAPSSKSTSGGTAALGCLVKDYFPEPVTVSWNSGALTSGVHTFPAVLQSSGLYSLSSVVTVPSSSLGTQTYICNVNHKPSNTKVDKKVEPKSCDKTHTCPPCPAPELLGGPSVFLFPPKPKDTLYISRTPEVTCVVVDVSHEDPEVKFNWYVDGVEVHNAKTKPREEQYNSTYRVVSVLTVLHQDWLNGKEYKCKVSNKALPAPIEKTISKAKGQPREPQVYTLPPSRDELTKNQVSLTCLVKGFYPSDIAVEWENNSQPENNYKTTPPVLDSDGSFFLYSKLTVDKSRWQQGNVFSCSVMHEALHYHYTQKSLSLSP light: DIQMTQSPSSLSASVGDSVTITCQASTDISSHLNWYQQKPGKAPELLIYYGSHLLSGVPSRFSGSGSGTDFTFTISSLEAEDAATYYCGQGNRLPYTFGQGTKVEIERTVAAPSVFIFPPSDEQLKSGTASVVCLLNNFYPREAKVQWKVDNALQSGNSQESVTEQDSKDSTYSLSSTLTLSKADYEKHKVYACEVTHQGLSSPVTKSFNRGEC"
4,280 nM,"Fv-4-F1097 (antibody, human IgG1, kappa) heavy: QVQLQESGPGLVKPSETLSLTCAVSGHSISHDHAWSWVRQPPGEGLEWIGFISYSGITNYNPSLQGRVTISRDNSKNTLYLQMNSLRAEDTAVYYCARSLARTTAMDYWGEGTLVTVSSASTKGPSVFPLAPSSKSTSGGTAALGCLVKDYFPEPVTVSWNSGALTSGVHTFPAVLQSSGLYSLSSVVTVPSSSLGTQTYICNVNHKPSNTKVDKKVEPKSCDKTHTCPPCPAPELLGGPSVFLFPPKPKDTLYISRTPEVTCVVVDVSHEDPEVKFNWYVDGVEVHNAKTKPREEQYNSTYRVVSVLTVLHQDWLNGKEYKCKVSNKALPAPIEKTISKAKGQPREPQVYTLPPSRDELTKNQVSLTCLVKGFYPSDIAVEWESNNQSENNYKTTPPVLDSDGSFFLYSKLTVDKSRWQQGNVFSCSVMHEALHYHYTQKSLSLSP light: DIQMTQSPSSLSASVGDSVTITCQASTDISSHLNWYQQKPGKAPELLIYYGSHLLSGVPSRFSGSGSGTDFTFTISSLEAEDAATYYCGQGNRLPYTFGQGTKVEIERTVAAPSVFIFPPSDEQLKSGTASVVCLLNNFYPREAKVQWKVDNALQSGNSQESVTEQDSKDSTYSLSSTLTLSKADYEKHKVYACEVTHQGLSSPVTKSFNRGEC"
5,260 nM,Fv-4-F1094 (antibody) heavy: QVQLQESGPGLVKPSETLSLTCAVSGHSISHDHAWSWVRQPPGEGLEWIGFISYSGITNYNPSLQGRVTISRDNSKNTLYLQMNSLRAEDTAVYYCARSLARTTAMDYWGEGTLVTVSSASTKGPSVFPLAPSSKSTSGGTAALGCLVKDYFPEPVTVSWNSGALTSGVHTFPAVLQSSGLYSLSSVVTVPSSSLGTQTYICNVNHKPSNTKVDKKVEPKSCDKTHTCPPCPAPELLGGPSVFLFPPKPKDTLYISRTPEVTCVVVDVSHEDPEVKFNWYVDGVEVHNAKTKPREEQYNSTYRVVSVLTVLHQDWLNGKEYKCKVSNKALPAPIEKTISKAKGQPREPQVYTLPPSRDELTKNQVSLTCLVKGFYPSDIAVEWESNGQPENNYKTTPPVLDSDGSFFLYSKLTVDKSRWQQGNVFSCSVMHEALHYHYTQKSLNLSP light: DIQMTQSPSSLSASVGDSVTITCQASTDISSHLNWYQQKPGKAPELLIYYGSHLLSGVPSRFSGSGSGTDFTFTISSLEAEDAATYYCGQGNRLPYTFGQGTKVEIERTVAAPSVFIFPPSDEQLKSGTASVVCLLNNFYPREAKVQWKVDNALQSGNSQESVTEQDSKDSTYSLSSTLTLSKADYEKHKVYACEVTHQGLSSPVTKSFNRGEC

# Molecular target: T1, soluble human FcRn
# Experiment: SPR (Biacore), pH 6.0
row,Kd,Binder
1,73 nM,"Fv-4-F1380 (antibody, human IgG1, kappa) heavy: QVQLQESGPGLVKPSETLSLTCAVSGHSISHDHAWSWVRQPPGEGLEWIGFISYSGITNYNPSLQGRVTISRDNSKNTLYLQMNSLRAEDTAVYYCARSLARTTAMDYWGEGTLVTVSSASTKGPSVFPLAPSSKSTSGGTAALGCLVKDYFPEPVTVSWNSGALTSGVHTFPAVLQSSGLYSLSSVVTVPSSSLGTQTYICNVNHKPSNTKVDKKVEPKSCDKTHTCPPCPAPELLGGPSVFLFPPKPKDTLMISRTPEVTCVVVDVSHEDPEVKFNWYVDGVEVHNAKTKPREEQYNSTYRVVSVLTVLHQDWLNGKEYKCKVSNKALPAPIEKTISKAKGQPREPQVYTLPPSRDELTKNQVSLTCLVKGFYPSDIAVEWESNGQPENNYKTTPPVLDSDGSFFLYSKLTVDKSRWQQGNVFSCDVLHEALHSHYTQKSLSLSP light: DIQMTQSPSSLSASVGDSVTITCQASTDISSHLNWYQQKPGKAPELLIYYGSHLLSGVPSRFSGSGSGTDFTFTISSLEAEDAATYYCGQGNRLPYTFGQGTKVEIERTVAAPSVFIFPPSDEQLKSGTASVVCLLNNFYPREAKVQWKVDNALQSGNSQESVTEQDSKDSTYSLSSTLTLSKADYEKHKVYACEVTHQGLSSPVTKSFNRGEC"
